B1: LINE1-mini (parent)
chain: GGCAGAGCUCAACACAGCGUGGCAAAGUGGCUGUGGCUAGACUGCC

Variants of: B1
Test: self-cleavage, relative activity (ratio to wild type); higher = more cleavage; in vitro, sequencing; the parent is a self-cleaving ribozyme

Variant | self-cleavage
GGCAGAGUUCAAGACAGCGUGGCAAAGUGGCUGUGGCUAGACUGCC [C8U C13G] | 0.29
GGCAGAGCUCAACACAGCGUGGCAAAGUGGCUGUGGCUAGACUAGC [G44A C45G] | 0.2
GGUAGAGCUCAACACAGCGUGGCAAAGUGGCUGUGUCUAGACUGCC [C3U G36U] | 0.22
GGCAGAGCUCAACACAGCGUGGCAAAGUGGCUGCGGCUAGACUGCG [U34C C46G] | 0.1
GGCAGAGCUCAACACAGCGUGGCAAAGUGGCUGUGGCUAGACUGGU [C45G C46U] | 0.66
GGCAGAGCUGAACACAGCGUGGCAAAGUGGCUGUGGGUAGACUGCC [C10G C37G] | 0.01
GGCAGAGCUCAACACAGCGUUGCAAAGUGGCUGUGGGUAGACUGCC [G21U C37G] | 0.04
GCGAGAGCUCAACACAGCGUGGCAAAGUGGCUGUGGCUAGACUGCC [G2C C3G] | 0.07
GGCAGAGCUCAACACAGCGUGGCAGAGUGGCUGUGGCUAGACUGCA [A25G C46A] | 0.55
GGCAGAGCUGAACACAGCGGGGCAAAGUGGCUGUGGCUAGACUGCC [C10G U20G] | 0.05
GGCAGAGCUCAACACAGCGUGGCAAAGUGGCUGUGGCCAGACUGUC [U38C C45U] | 1.38
GGCAGAGCUCAACACAGCGUGGCAUAGUGGCUGUGGCUACACUGCC [A25U G40C] | 0.09
GGCAGAGCUCAACACAGCGUGGGAAAGUGGCUGUCGCUAGACUGCC [C23G G35C] | 0.12
GGCAAAGCUCAUCACAGCGUGGCAAAGUGGCUGUGGCUAGACUGCC [G5A A12U] | 0.09
GGCAGAGCUCAACACAGCGUGGCAAAGUUGCUGCGGCUAGACUGCC [G29U U34C] | 0.13
GGCAGAGCUCAACACGGCGCGGCAAAGUGGCUGUGGCUAGACUGCC [A16G U20C] | 0.37
GGCAGAGCUCAACAAAGCGUGGCAAAGUGGCUGUGGCUAGUCUGCC [C15A A41U] | 0.05
GGCAGAGCUCACCACAGCGUGGCAUAGUGGCUGUGGCUAGACUGCC [A12C A25U] | 0.01
GGCAGCGCUCAACACAGCGUGGCAAAGUGGAUGUGGCUAGACUGCC [A6C C31A] | 0.11

Variant | self-cleavage
GGCGGAGCUCAACACAGCGUGGCAAAGUGGCUCUGGCUAGACUGCC [A4G G33C] | 0.07
GGCAGAGCUCAACACAGCGUGGCAAAGUGGCUGGGGCUAUACUGCC [U34G G40U] | 0.05
GGCAGAGCUCAACAAAGCGUGGCAAAGUGGCUGUGCCUAGACUGCC [C15A G36C] | 0.04
GGCUGAGCUCAACACAGCGUGGCAAAGUGGCUGUGGCUAGACUACC [A4U G44A] | 0.17
GGCAGAGCUCCACACAGCGUGGCAAAGUGGCUGUAGCUAGACUGCC [A11C G35A] | 0.03
GGCAGAGCUCAACACAGCGUCGCAAAGUGGCUGUGGCUAGACUGCC [G21C] | 0.72
GGGAGAGAUCAACACAGCGUGGCAAAGUGGCUGUGGCUAGACUGCC [C3G C8A] | 0.52
AGCAGAGCUCAACACAGCGUGGCAAAGUGGCUGUGGAUAGACUGCC [G1A C37A] | 0.07
GGCAGAGCUCAACACUGCGUGGCAAAGUGGCUGUGGCUAGACGGCC [A16U U43G] | 0.02
GGCAGAGCUCAUCAUAGCGUGGCAAAGUGGCUGUGGCUAGACUGCC [A12U C15U] | 0.1
GGCUGAGCUCAACACAGCGUGGCAAAGUGGCUGUGGCUAGACGGCC [A4U U43G] | 0.06
GGCAGAGCUUAACACAGCGUGGCAAAGUGGCUGUGGCUAGAAUGCC [C10U C42A] | 0.05
GUCAGAGCUCAACACAGCGUGGCAAAGUGGCUGUGGCUAGGCUGCC [G2U A41G] | 0.09
GGCAGAGCUCAACACAGCGUGGCAAACGGGCUGUGGCUAGACUGCC [G27C U28G] | 0.51
GGCAGAGCUCAAUACAGCGUGACAAAGUGGCUGUGGCUAGACUGCC [C13U G22A] | 0.13
GGCAGAGCUCAUCACAGCUUGGCAAAGUGGCUGUGGCUAGACUGCC [A12U G19U] | 0.19
GGCAGAGAUCAACACAGCGUGGCAAAGUGGCUGUGGCUAGACUGCU [C8A C46U] | 0.43
GGCAGAGCUCAACACAGCGUGGCAAAGUGGCUGUGGCUAAAAUGCC [G40A C42A] | 0.1
GGCAGAGCUCAACACAGCGUGUCAAAGUGGCUGUGGCUCGACUGCC [G22U A39C] | 0.14

Variant | self-cleavage
GGCAGAGCUCAACACAGCGUGGCAAAGUGGCUGUGCCUAUACUGCC [G36C G40U] | 0.18
GGCAGAGCUCAACACAGCGUGGAAAAGUGGCUGUGGCUAGACUCCC [C23A G44C] | 0.51
GGCAGAGCUCAACACAGCGUGGCAAAGUGGCCGUGGCUAGACUGCC [U32C] | 0.2
GGCAGAGCCCAACACAGCGUGGCGAAGUGGCUGUGGCUAGACUGCC [U9C A24G] | 0.07
GGCAGAGCUCAACACAGCGUGGCGAAGUGGCUGUGGCUAGACUGAC [A24G C45A] | 1.47
UGCAGAUCUCAACACAGCGUGGCAAAGUGGCUGUGGCUAGACUGCC [G1U G7U] | 0.06
GGCAGAGCUCAGCACAGCGUGGCAAAGUGGCUGUGGCUCGACUGCC [A12G A39C] | 0.04
GGCAGAGCUCAACACACCGUGGCAAAGUGGCUGUGGCCAGACUGCC [G17C U38C] | 0.15
GGCAGAGAUCAACACAGCGUGGCAAAGUGGCUGUGGCUAUACUGCC [C8A G40U] | 0.34
GGCAGAGCUCAACAGAGCGUGGCAAAGUGGCUGUGGCUAUACUGCC [C15G G40U] | 0.09
GACAGAGCUCAACAUAGCGUGGCAAAGUGGCUGUGGCUAGACUGCC [G2A C15U] | 0.5
GGCAGAGCUCAACACAGCGUGGCAAAGUGGCUGUGGCUAUACUCCC [G40U G44C] | 0.16
GGCAGAGCUCAACACAGCGUGGCAAUGUGGCUGUGGCUAGACUGAC [A26U C45A] | 1.95
GGCAGAACUCAACACAGCGUUGCAAAGUGGCUGUGGCUAGACUGCC [G7A G21U] | 0.24
GGCAGAGCUCAACGCAGCGUGGCAAAGUGGCUGUGGCUAGAUUGCC [A14G C42U] | 0.21
GGCAGAGCUCAACGCAGCGUGGCAAAGUGGCUGUGGCUAGAGUGCC [A14G C42G] | 0.04
UGCGGAGCUCAACACAGCGUGGCAAAGUGGCUGUGGCUAGACUGCC [G1U A4G] | 0.25
GUCAGAGCUCAACACAGCGUGGCAAAGUGGCUGUGGCUGGACUGCC [G2U A39G] | 0.04
